{"source": "patent US6409648", "about": "“Polynucleotides encoding TRF1 binding proteins” (The Regents of the University of California)", "binders": {"B1": {"name": "GST-Tin2 (wild-type Tin2 with glutathione-S-transferase linked to the N-terminus) (other)", "chain": "MATPLVAGPAALRFAAAASWQVVRGRCVEHFPRVLEFLRSLRAVAPGLVRYRHHERLCMGLKAKVVVELILQGRPWAQVLKALNHHFPESGPIVRDPKATKQDLRKILEAQETFYQQVKQLSEAPVDLASKLQELEQEYGEPFLAAMEKLLFEYLCQLEKALPTPQAQQLQDVLSWMQPGVSITSSLAWRQYGVDMGWLLPECSVTDSVNLAEPMEQNPPQQQRLALHNPLPKAKPGTHLPQGPSSRTHPEPLAGRHFNLAPLGRRRVQSQWASTRGGHKERPTVMLFPFRNLGSPTQVISNPESKEEHAIYTADLAMGTRAPSNGKYKGPYQTLGGRALKENPVDLPATEQKE", "notes": "also called Wild-type GST-Tin2; WT GST-Tin2; not shown: glutathione-S-transferase (GST) encoded by vector pGex4X-1 (Pharmacia), linked to the N-terminus; linker residues not gi"}, "B2": {"name": "Myc-Tin2 (Tin2 with a 13 aa c-Myc epitope at the N-terminus) (other, not shown: small tags and cut ends)", "chain": "B1 chain", "notes": "Made by in vitro translation (rabbit reticulocyte lysate, 35S-methionine) or expressed in HT1080 cells from a retrovirus"}, "B3": {"name": "[TTAGGG]6 probes with flanks (6X-Tel 178 bp, Bi-6X-Tel 126 bp) (dsDNA)", "DNA 1": "TTAGGGTTAGGGTTAGGGTTAGGGTTAGGGTTAGGG", "DNA 2": "CCCTAACCCTAACCCTAACCCTAACCCTAACCCTAA"}, "B4": {"name": "GST-Tin2-12 (Tin2 with N-terminal deletion of aa 1-120, fused to GST) (other)", "chain": "LSEAPVDLASKLQELEQEYGEPFLAAMEKLLFEYLCQLEKALPTPQAQQLQDVLSWMQPGVSITSSLAWRQYGVDMGWLLPECSVTDSVNLAEPMEQNPPQQQRLALHNPLPKAKPGTHLPQGPSSRTHPEPLAGRHFNLAPLGRRRVQSQWASTRGGHKERPTVMLFPFRNLGSPTQVISNPESKEEHAIYTADLAMGTRAPSNGKYKGPYQTLGGRALKENPVDLPATEQKE", "notes": "not shown: GST carrier at the N end (vector pGex4X-1, Pharmacia) and its vector linker"}, "B5": {"name": "[TTAGGG]13 double-stranded telomeric probe (dsDNA)", "DNA 1": "TTAGGGTTAGGGTTAGGGTTAGGGTTAGGGTTAGGGTTAGGGTTAGGGTTAGGGTTAGGGTTAGGGTTAGGGTTAGGG", "DNA 2": "CCCTAACCCTAACCCTAACCCTAACCCTAACCCTAACCCTAACCCTAACCCTAACCCTAACCCTAACCCTAACCCTAA"}, "B6": {"name": "GST-Tin2-15 (N-terminal fragment aa 1-196 of Tin2, fused to GST) (other)", "chain": "MATPLVAGPAALRFAAAASWQVVRGRCVEHFPRVLEFLRSLRAVAPGLVRYRHHERLCMGLKAKVVVELILQGRPWAQVLKALNHHFPESGPIVRDPKATKQDLRKILEAQETFYQQVKQLSEAPVDLASKLQELEQEYGEPFLAAMEKLLFEYLCQLEKALPTPQAQQLQDVLSWMQPGVSITSSLAWRQYGVDM", "notes": "not shown: glutathione-S-transferase (GST) encoded by vector pGex4X-1 (Pharmacia)"}, "B7": {"name": "GST-Tin2-14 (Tin2 with C-terminal deletion of aa 276-354, fused to GST) (other)", "chain": "MATPLVAGPAALRFAAAASWQVVRGRCVEHFPRVLEFLRSLRAVAPGLVRYRHHERLCMGLKAKVVVELILQGRPWAQVLKALNHHFPESGPIVRDPKATKQDLRKILEAQETFYQQVKQLSEAPVDLASKLQELEQEYGEPFLAAMEKLLFEYLCQLEKALPTPQAQQLQDVLSWMQPGVSITSSLAWRQYGVDMGWLLPECSVTDSVNLAEPMEQNPPQQQRLALHNPLPKAKPGTHLPQGPSSRTHPEPLAGRHFNLAPLGRRRVQSQWAST", "notes": "as for B4"}}, "key": {"[1]": {"target": "B2", "assay": "co-immunoprecipitation with anti-GST of in vitro translated radiolabeled protein, SDS-PAGE"}, "[2]": {"target": "T1, HA-Trf1 (Trf1 with a 10 aa hemagglutinin epitope at the N-terminus) (human, UniProt P54274 1-439)", "T1 construct": "In vitro translated (major 60 kD and minor about 40 kD products), or expressed in HT1080 cells", "T1 sequence (looked up)": "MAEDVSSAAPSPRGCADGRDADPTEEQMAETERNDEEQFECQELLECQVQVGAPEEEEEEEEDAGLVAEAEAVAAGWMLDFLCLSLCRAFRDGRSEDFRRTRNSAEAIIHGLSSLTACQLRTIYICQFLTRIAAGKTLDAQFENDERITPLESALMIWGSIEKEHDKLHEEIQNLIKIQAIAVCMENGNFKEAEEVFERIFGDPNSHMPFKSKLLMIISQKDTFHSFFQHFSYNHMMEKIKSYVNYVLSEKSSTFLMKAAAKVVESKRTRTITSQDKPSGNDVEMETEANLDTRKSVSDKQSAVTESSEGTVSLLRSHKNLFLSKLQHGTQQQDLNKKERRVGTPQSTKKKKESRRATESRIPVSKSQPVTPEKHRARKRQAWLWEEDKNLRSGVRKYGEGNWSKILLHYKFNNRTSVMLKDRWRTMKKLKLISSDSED", "assay": "EMSA with nuclear extract of HA-Trf1 expressing cells and telomeric DNA probe"}, "[3]": {"target": "T2, HA-tagged hTERT protein (human telomerase catalytic subunit) (human, UniProt O14746 1-1132)", "T2 construct": "Transiently expressed in Myc-Tin2-expressing cells; not shown: HA tag", "T2 sequence (O14746 whole entry)": "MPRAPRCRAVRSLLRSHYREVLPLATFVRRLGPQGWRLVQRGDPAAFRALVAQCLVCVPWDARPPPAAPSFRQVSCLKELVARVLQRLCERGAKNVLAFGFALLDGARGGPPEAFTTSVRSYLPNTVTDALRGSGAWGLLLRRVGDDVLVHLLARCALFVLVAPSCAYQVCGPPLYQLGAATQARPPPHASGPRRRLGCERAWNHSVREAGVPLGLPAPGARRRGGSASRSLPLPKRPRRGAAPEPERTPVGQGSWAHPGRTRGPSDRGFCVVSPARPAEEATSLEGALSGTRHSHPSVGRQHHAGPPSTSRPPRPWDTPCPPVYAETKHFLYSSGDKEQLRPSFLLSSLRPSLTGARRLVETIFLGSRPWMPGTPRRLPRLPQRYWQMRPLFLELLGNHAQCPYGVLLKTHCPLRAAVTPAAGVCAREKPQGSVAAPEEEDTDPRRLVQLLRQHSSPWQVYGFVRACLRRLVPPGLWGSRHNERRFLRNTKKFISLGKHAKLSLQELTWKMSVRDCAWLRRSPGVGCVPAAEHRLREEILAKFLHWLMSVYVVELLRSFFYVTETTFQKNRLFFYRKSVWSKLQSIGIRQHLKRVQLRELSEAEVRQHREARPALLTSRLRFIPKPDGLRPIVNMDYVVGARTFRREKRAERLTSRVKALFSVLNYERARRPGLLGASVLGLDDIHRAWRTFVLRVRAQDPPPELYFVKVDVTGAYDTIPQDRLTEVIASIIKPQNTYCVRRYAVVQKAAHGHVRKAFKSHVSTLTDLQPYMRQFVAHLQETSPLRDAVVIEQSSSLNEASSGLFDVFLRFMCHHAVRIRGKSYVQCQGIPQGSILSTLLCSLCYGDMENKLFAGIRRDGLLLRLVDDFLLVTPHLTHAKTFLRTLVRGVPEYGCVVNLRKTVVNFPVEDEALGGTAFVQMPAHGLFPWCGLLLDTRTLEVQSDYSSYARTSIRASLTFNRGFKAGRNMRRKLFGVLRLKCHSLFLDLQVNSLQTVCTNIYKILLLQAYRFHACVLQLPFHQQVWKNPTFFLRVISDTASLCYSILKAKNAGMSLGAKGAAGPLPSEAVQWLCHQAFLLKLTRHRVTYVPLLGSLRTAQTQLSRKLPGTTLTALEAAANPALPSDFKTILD", "assay": "co-immunoprecipitation from cells"}, "[4]": {"target": "T1, HA-Trf1 (Trf1 with a 10 aa …)", "assay": "co-immunoprecipitation of mixed in vitro translation products, SDS-PAGE"}, "Trf1 + Tin2 complex [5]": {"target": "T3, Trf1 + Tin2 complex (human, UniProt P54274;Q9BSI4-2 P54274:1-439,Q9BSI4-2:1-354)", "assay": "pulldown; probe pairing (6X-Tel/labeled Bi-6X-Tel) over Trf1 alone; 4-5 fold with unlabeled Bi-6X-Tel; abolished by excess unlabeled [TTAGGG]7", "conditions": "tags: 6his on both, baculovirus/Sf9; chain copies: 2 Trf1 + 2 Tin2 in TT-AA (stated as likely); label: 32P (6X-Tel); 5' biotin (Bi-6X-Tel)", "experimental": "The 178 bp probe (6X-Tel) and the 126 bp probe (Bi-6X-Tel) were used either labeled or unlabeled. The probes were mixed together, incubated with purified 6his-proteins under optimized conditions, and Bi-6X-Tel probes were collected on streptavidin-agarose beads, as described below. […] Released labeled probes were identified by PAGE.\n(§1) 6his-Trf1 (150 ng) and increasing amounts of 6his-Tin2 were incubated with a double stranded TTAGGG_6 probe, and protein-DNA complexes were analyzed by EMSA. Probes containing [TTAGGG]_6 and flanking sequences were synthesized by PCR. 6X-Tel was 178 bp, and labeled with ^32P (*). Bi-6X-Tel was 126 bp, biotinylated at a 5' end, and either labeled (*) or unlabeled. The 6X-Tel probe was incubated with labeled or unlabeled Bi-6X-Tel probe, and 6his-Trf1 (150 ng), 6his-Tin2 (60 ng), GST (100 ng), GST-Tin2–13 (100 ng) and/or 100 fold excess unlabeled [TTAGGG]_7, followed by incubation with streptavidin-agarose beads. The beads were collected, and components released and analyzed by PAGE. Signals were quantified using a phosphorimager and ImageQuant. Reaction mixtures were analyzed by EMSA.\nIn the absence of protein or presence of Tin 2 alone, virtually no 6X-Tel probe, and very little labeled Bi-6X-Tel was released. […] Trf1 alone increased the amount of both 6X-Tel and labeled Bi-6X-Tel that were released. […]"}, "Trf1 (6his-Trf1) [6]": {"target": "T4, Trf1 (6his-Trf1) (human, UniProt P54274 P54274:1-439)", "assay": "EMSA; TT plus minor TT**, TT*** and small amount of TT-AAX; Trf1 alone induces probe-probe pairing", "conditions": "tags: 6his, baculovirus/Sf9; chain copies: 2 (homodimer, stated); label: 32P (6X-Tel); 5' biotin (Bi-6X-Tel)", "experimental": "as §1\nUnder these optimized conditions, Trf1 alone formed a small amount of TT-AAX which was greatly stimulated by Tin2. Also under these conditions, Trf1 alone formed two minor complexes that are likely due to two (TT) and three (TT*) Trf1 homodimers loaded onto the probe (Bianchi et al., 1997). The Tin2–13 mutant supershifted all three TT complexes, as expected from its ability to bind Tfr1."}, "[7]": {"target": "Trf1 (HA-Trf1, in vitro translated) (human, UniProt P54274 P54274:1-439)", "assay": "EMSA; specific protein-DNA complex TT", "experimental": "(§2) Nuclear extracts were prepared as described (Dimri et al., 1994), and dialyzed against 20 mM HEPES, pH 7.9, 100 mM KCl, 0.5 mM DTT, 0.5 mM PMSF. [TTAGGG]_6 and $[TTAGGG]13$ in pBluescript were excised, labeled using Klenow or PCR and gel purified. EMSA was performed as described (Zhong et al., 1992) in 20 ul containing 0–20 ug GST or GST-fusion proteins, 6–8 ug nuclear extract protein or 5 ul in vitro translation reaction, using a 30 min incubation at room temperature and 5% PAGE run with 1× Tris-borate-EDTA buffer.\nThis was true whether Tin2 was translated in vitro, purified from *E. coli* as a GST-fusion protein, or purified from baculovirus infected insect cells as a 6-histidine (6his)-tagged protein. […] In contrast, Trf1, whether translated in vitro or in nuclear extracts from HA-Trf1 overexpressing cells, formed a specific protein-DNA complex (Chong et al., 1995). Since Trf1 binds DNA as a homodimer (Bianchi et al., 1997), this complex was designated TT. To determine whether Tin2 interacts with this complex, WT or mutant GST-Tin2 proteins were added to nuclear extracts from HA-Trf1 expressing cells."}, "Trf1 (6his-Trf1) [8]": {"target": "T4, Trf1 (6his-Trf1)", "assay": "EMSA; single TT complex; probe not restated, taken as [TTAGGG]13", "conditions": "tags: 6his, baculovirus/Sf9; chain copies: 2 (homodimer, stated)", "experimental": "as §2\n(§3) To determine the nature of TT-AAX, DNA complexes formed by purified proteins were examined. 6his-tagged Trf1 and Tin2 were produced and purified from baculovirus-infected cells. […] Moreover, 6his-Tin2, added in increasing amounts to 6his-Trf1 and probe, shifted all the TT to TT-AAX . Since 6his-Tin2 formed more TT-AAX than GST-Tin2, the GST moiety may reduce TT-AAX formation or stability. Nuclear extract had only a small effect on TT-AAX formation. […] Addition of 6his-Trf1 produced TT, and 6his-Tin2 shifted all the TT to TT-AAX. However, somewhat more TT-AAX was formed in the presence of nuclear extract than its absence. Thus, TT-AAX required only Trf1, Tin2 and telomeric DNA, but other nuclear proteins might enhance its formation or stability."}, "Trf1 + Tin2 complex [9]": {"target": "T3, Trf1 + Tin2 complex", "assay": "EMSA; all TT shifted to TT-AAX; nuclear extract slightly enhances", "conditions": "tags: 6his on both, baculovirus/Sf9; chain copies: 2 Trf1 + 2 Tin2 in TT-AA (stated as likely)", "experimental": "as §2, §3"}}}
{"binder": "B1", "values": [{"measurement": "binding result", "setting": "[1]", "result": "no binding"}, {"measurement": "binding result", "setting": "[2]", "result": "binds"}]}
{"binder": "B2", "values": [{"measurement": "binding result", "setting": "[3]", "result": "no binding"}, {"measurement": "binding result", "setting": "[4]", "result": "binds"}]}
{"binder": "B3", "values": [{"measurement": "binding result", "setting": "Trf1 + Tin2 complex [5]", "result": "binds"}, {"measurement": "binding result", "setting": "Trf1 (6his-Trf1) [6]", "result": "binds"}]}
{"binder": "B4", "values": [{"measurement": "binding result", "setting": "[2]", "result": "binds"}]}
{"binder": "B5", "values": [{"measurement": "binding result", "setting": "[7]", "result": "binds"}, {"measurement": "binding result", "setting": "Trf1 (6his-Trf1) [8]", "result": "binds"}, {"measurement": "binding result", "setting": "Trf1 + Tin2 complex [9]", "result": "binds"}]}
{"binder": "B6", "values": [{"measurement": "binding result", "setting": "[2]", "result": "no binding"}]}
{"binder": "B7", "values": [{"measurement": "binding result", "setting": "[2]", "result": "binds"}]}
